19 molecules from patent US20190127480A1 (Regeneron, published 2019) can be followed below.

The target in experiment [1] is T1, human CD3 expressed on cells (Jurkat cells; human T-cells of PBMC) (human, UniProt P09693 23-182; P20963 22-164). Nature of the experiment: cell-based or functional assay.
For experiment [2], the target named is T1, human CD3 expressed on cells (Jurkat …). The experiment in a line: cell-based or functional assay. The source holds these as a separate data set.
For experiment [3], the target named is T2, human CD3 expressed on cells (Jurkat cells, a CD3+ human T-cell line; human PBMC T cells) (human, UniProt P07766 23-207; P04234 22-171). The experiment in a line: cell-based or functional assay.
Experiment [4] concerns the target T2, human CD3 expressed on cells (Jurkat …). Nature of the experiment: FACS on Jurkat cells. The procedure:
FACS data was acquired using the following protocol: Cells at 2×10⁵ per well were incubated with serially diluted antibodies for 30 min on ice. Post incubation, cells were washed and secondary antibody was added and incubated for an additional 30 minutes. After incubation, cells were washed, re-suspended in cold PBS containing 1% BSA and analyzed by flow cytometry with viable Jurkat cells gated by side and forward scatters. The EC₅₀s for cell binding titration were determined using Prism software with values calculated using a 4-parameter non-linear regression analysis.

For experiment [5], the target named is T3, Soluble heterodimeric CD3 protein (hCD3-epsilon/hCD3-delta) with either a human Fc tag (hFcΔAdp/hFc) or a … (human, UniProt P07766 23-126; P04234 22-105).
T3 construct: also called hCD3ε/δ; not shown: Fc tag: human (hFcΔAdp/hFc)
The experiment in a line: SPR Biacore 25C antigen-capture. A digest of the protocol:
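Rate constants fitted to a 1:1 model, giving KD as kd/ka and dissociative half-life as ln2/(60·kd) minutes. Antibodies flowed over CD3ε/δ heterodimer captured on anti-human or anti-mouse Fc surfaces, run on a Biacore T200 at 25 °C.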
(SPR reads the build-up and loss of mass on a sensor chip optically.)

A word on the EC50: it is the concentration giving half of the maximal effect. A higher EC50 goes with a need for much substance. As a reminder, the Kd is the constant that tells how readily two partners part at equilibrium. Low values mean higher affinity, high ones lower affinity. A word on the koff: it is the first-order rate constant of dissociation. Low readings indicate a long-lived complex, high ones a short-lived complex. As usually defined, the kon is the rate constant with which the complex forms. Read a low kon as slow association.

T1 sequence (chain, as listed by the source, chain 1 of 4): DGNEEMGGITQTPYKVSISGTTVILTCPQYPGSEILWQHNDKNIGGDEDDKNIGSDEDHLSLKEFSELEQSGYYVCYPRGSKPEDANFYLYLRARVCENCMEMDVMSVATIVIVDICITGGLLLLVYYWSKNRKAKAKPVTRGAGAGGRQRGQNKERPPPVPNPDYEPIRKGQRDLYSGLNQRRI
T1 sequence (chain, as listed by the source, chain 2 of 4): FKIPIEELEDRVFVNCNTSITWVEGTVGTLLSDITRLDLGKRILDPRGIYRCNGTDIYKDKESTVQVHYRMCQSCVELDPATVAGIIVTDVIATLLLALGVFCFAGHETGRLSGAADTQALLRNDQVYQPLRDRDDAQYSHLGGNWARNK
T1 sequence (P09693 23-182, chain 3 of 4): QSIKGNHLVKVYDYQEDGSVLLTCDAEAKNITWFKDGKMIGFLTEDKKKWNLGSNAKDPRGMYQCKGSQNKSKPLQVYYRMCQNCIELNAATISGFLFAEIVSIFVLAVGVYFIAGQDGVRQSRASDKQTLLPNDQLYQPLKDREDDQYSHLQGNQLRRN
T1 sequence (P20963 22-164, chain 4 of 4): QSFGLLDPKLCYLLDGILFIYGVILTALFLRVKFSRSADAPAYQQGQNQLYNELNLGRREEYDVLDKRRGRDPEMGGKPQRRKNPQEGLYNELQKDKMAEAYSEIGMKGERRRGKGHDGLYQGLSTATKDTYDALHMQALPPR
T2 sequence (P07766 23-207 limits assumed, chain 1 of 2): as the sequence (chain, as listed by the source, chain 1 of 4) above
T2 sequence (P04234 22-171 limits assumed, chain 2 of 2): as the sequence (chain, as listed by the source, chain 2 of 4) above
T3 sequence (P07766 23-126 limits assumed, stated change not applied, chain 1 of 2): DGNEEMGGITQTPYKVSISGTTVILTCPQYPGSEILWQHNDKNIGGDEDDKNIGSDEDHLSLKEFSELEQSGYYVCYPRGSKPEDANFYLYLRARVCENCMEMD
T3 sequence (P04234 22-105 limits assumed, stated change not applied, chain 2 of 2): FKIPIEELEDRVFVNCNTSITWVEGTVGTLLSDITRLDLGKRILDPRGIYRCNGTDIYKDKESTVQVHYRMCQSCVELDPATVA

B1: H1M3544N (antibody, mouse IgG1, V domains shown)
VH: EVQLVESGGGLVQPGRSLRLSCAASGFTFDDYTMHWVRQVPGKGLEWVSGISWNSGSLAYADSVKGRFTISRDNAKNSLYLQMNSLHPEDTALYYCVKDGSGYGHYSYYGLDVWGQGTTVTVSS
VL: not shown
B1: in experiment [1], the “U937 Cytotoxicity Human T-cells” value came to 172 pM.

B2: H1H5799P (antibody, human IgG1, V domains shown)
VH: QVQLVQSGAEVKKPGASVKVSCKASGYTFIGYYMHWVRQAPGQGLEWMGWINPKSGGTNYAQKFQGRVTMTGDTSISTAYMELSRLRSDDTAVFYCARMGDGAMFDYWGQGTLVTVSS
VL: DIQMTQSPSSLSASVGDRVTITCRASQRISSYLNWYQQKAGKAPKVLIYTASSLQSGVPSRFSGSGSGTDFTLTISSLQPEDFATYYCQQSYSTPLTFGGGTKVEIK
With B2, in experiment [2], the “EC50 [M] hPBMC Proliferation” value amounted to 1.63e-13 M.

B3: H2M3548N (antibody, mouse IgG2, V domains shown)
VH: EVQLVESGGGLVQPGRSLRLSCAASGFKFADYAMHWVRQAPGKGLEWVSEISWNSGSIGYVDSVKGRFTISRDNAKNSLYLQMNSLRAEDTALYYCVKDKSGYGHYYIGMDVWGQGTTVIVSS
VL: not shown
B3: the “U937 Cytotoxicity Human T-cells” value in experiment [1] was found to be 5.5 pM.

B4: H2M3548N (antibody, mouse IgG2, V domains shown)
VH: EVQLVESGGGLVQPGRSLRLSCAASGFKFADYAMHWVRQAPGKGLEWVSEISWNSGSIGYVDSVKGRFTISRDNAKNSLYLQMNSLRAEDTALYYCVKDKSGYGHYYIGMDVWGQGTTVIVSS
VL: not shown
notes: H2M: mouse IgG2 Fc, human variable regions; divalent
Regarding B4, in experiment [3], the “EC50 [M] hPBMC Proliferation” value amounted to 1.89e-12 M. It took 1.1 nM to reach a half-maximal effect in experiment [4] (EC50).

B5: H2M3541N (antibody, mouse IgG2, V domains shown)
VH: EVQLVESGGGLVRPGRSLRLSCAASGFTFDDYTMHWVRQAPGKGLEWVSDISWNSGTIGYADSVKGRFTISRDNAKNSLYLQMNSLRPEDTALYYCAKDMSGYAHYYYYGMDVWGQGTTVTVSS
VL: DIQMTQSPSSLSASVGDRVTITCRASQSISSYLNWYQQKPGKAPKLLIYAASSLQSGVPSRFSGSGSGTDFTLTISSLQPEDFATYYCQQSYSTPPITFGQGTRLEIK
For B5, the “U937 Cytotoxicity Human T-cells” value in experiment [1] worked out at 53.9 pM.

B6: H1M3613N (antibody, mouse IgG1, V domains shown)
VH: EVQLVESGGGLVQPGRSLKLSCTASGFTFADYTMHWVRQGPGKGLEWVSDISWNSGSKGYADSVKGRFTISRDNAKNSLYLQMNSLRTEDTALYYCAKDMSGYAHYYYYALDVWGQGTTVTVSS
VL: not shown
On to B6, for which, in experiment [1], the “U937 Cytotoxicity Human T-cells” value came out at 866 pM.

B7: H1M3549N (antibody, mouse IgG1, V domains shown)
VH: EVQLVESGGGLVQPGRSLRLSCVASGFPFADYTMHWVRQAPGKGLEWVSDISWNSGSIGYADSVKGRFTISRDNAKNSLYLQMNSLRTEDTALYYCAKDMSGYAHYFYYGMDVWGQGTTVTVSS
VL: not shown
Consider B7, for which the “U937 Cytotoxicity Human T-cells” value in experiment [1] worked out at 107 pM.

B8: H1M3542N (antibody, mouse IgG1, V domains shown)
VH: EVQLVESGGGLVQPGRSLRLSCVASGFPFADYTMHWVRQAPGKGLEWVSDISWNSGSKGYADSVKGRFTISRDNAKNSLYLQMNSLRTEDTAFYYCAKDMSGYAHYFYYGMDVWGQGTTVTVSS
VL: not shown
As for B8, the “U937 Cytotoxicity Human T-cells” value in experiment [1] was 29.2 pM.

B9: H1M3549N (antibody, mouse IgG1, V domains shown)
VH: EVQLVESGGGLVQPGRSLRLSCVASGFPFADYTMHWVRQAPGKGLEWVSDISWNSGSIGYADSVKGRFTISRDNAKNSLYLQMNSLRTEDTALYYCAKDMSGYAHYFYYGMDVWGQGTTVTVSS
VL: not shown
notes: H1M: mouse IgG1 Fc, human variable regions; divalent
B9: in experiment [5], binding was characterised by a dissociation constant (Kd) of 1.03 nM, the “T½” value was 0.667 h, the off-rate (koff) turned out to be 0.000289 s⁻¹ and the kon is 281000 M⁻¹ s⁻¹. The molecule also returned an EC50 in experiment [4] of 2.3 nM.

B10: H1M3542N (antibody, mouse IgG1, V domains shown)
VH: EVQLVESGGGLVQPGRSLRLSCVASGFPFADYTMHWVRQAPGKGLEWVSDISWNSGSKGYADSVKGRFTISRDNAKNSLYLQMNSLRTEDTAFYYCAKDMSGYAHYFYYGMDVWGQGTTVTVSS
VL: not shown
notes: as for B9
Consider B10, for which, in experiment [5], the affinity, expressed as Kd, was 0.457 nM; the “T½” value amounted to 0.967 h; the koff amounted to 0.0002 s⁻¹; the kon is 437000 M⁻¹ s⁻¹. In addition, the EC50 in experiment [4] stood at 2.01 nM.

B11: H1M3613N (antibody, mouse IgG1, V domains shown)
VH: EVQLVESGGGLVQPGRSLKLSCTASGFTFADYTMHWVRQGPGKGLEWVSDISWNSGSKGYADSVKGRFTISRDNAKNSLYLQMNSLRTEDTALYYCAKDMSGYAHYYYYALDVWGQGTTVTVSS
VL: not shown
notes: as for B9
Take B11: in experiment [5], binding was characterised by a dissociation constant (Kd) of 0.435 nM, the “T½” value was 2 h, the off-rate constant (koff) was 9.6e-05 s⁻¹ and the kon is 220000 M⁻¹ s⁻¹. In experiment [4], this molecule displayed an EC50 of 10.3 nM.

B12: H2M3540N (antibody, mouse IgG2, V domains shown)
VH: QVHLEESGGGVVQPGRSLRLSCSASGFTFSSYAMHWVRQAPGKGLEWVAVIWYDGTNKYYLDSVKGRFTISRDNSKNTLFLQMNSLRAEDTAVYYCARDRGSIITHWGQGTLVTVSS
VL: DIQMTQSPSSLSASIGDRVTITCRASQNISSYLNWYQQKPGKAPKLLIYAASSLQSGVPSRFSGSGSGTDFTLTISSLQPEDFATYYCQQTYSTPPITFGQGTRLEIK
For B12, the “U937 Cytotoxicity Human T-cells” value in experiment [1] was 12.5 pM.

B13: H2M3543N (antibody, mouse IgG2, V domains shown)
VH: EVQLVESGGGLVQPGRSLRLSCAASGFTFDDYTMHWVRQAPGKGLEWVSDISWNSGSIGYADSVKGRFTVSRDNAKNSLYLQMNSLRGEDTALYYCAKDMSGYAHYGYYGMDVWGQGTTVTVSS
VL: DIQMTQSPSSLSASVGDRVTITCRASQSIRNYLNWYQQKPGKVPKLLIYAASSLQSGVPSRFSGSGSGTDFTLTISSLQPEDFATYYCQQSYSNPPITFGQGTRLEIK
B13: the “U937 Cytotoxicity Human T-cells” value in experiment [1] is 13.1 pM.

B14: H2M2789N (antibody, mouse IgG2, V domains shown)
VH: QVTLKESGPALVKPTQTLTLTCTFSGFSLSTSGMCVSWIRQPPGKALEWLARIDWDDDKYYSTSLKTRLTISKDTSKNQVVLTMTNMDPVDTATYYCARMDIVGARGGWFDPWGQGTLVTVSS
VL: DIQMTQSPSSLSASVGDRVTITCRASQGISNYLAWFQQKPGKAPKSLIYAASSLQSGVPSKFSGSGSGTDFTLTISSLQPEDFATYYCQQYNSYPLTFGGGTKVEIK
For B14, the “EC50 [M] hPBMC Proliferation” value in experiment [3] turned out to be 2.85e-08 M.

B15: H2M2690N (antibody, mouse IgG2, V domains shown)
VH: EVQLVESGGGLVQPGRSLRLSCAASGFTFDDYTMHWVRQAPGKGLEWVSGISWNSGSIGYADSVKGRFTISRDNAKKSLYLQMNSLRAEDTALYYCAKDNSGYGHYYYGMDVWGQGTTVTVAS
VL: EIVMTQSPATLSVSPGERATLSCRASQSVSSNLAWYQQKPGQAPRLLIYGASTRATGIPARFSGSGSGTEFTLTISSLQSEDFAVYYCQHYINWPLTFGGGTKVEIK
notes: as for B4
As to B15, in experiment [5], the Kd came out at 0.0799 nM, the “T½” value came out at 30.3 h, the koff stood at 6.35e-06 s⁻¹ and the kon worked out at 75100 M⁻¹ s⁻¹. Besides, the “EC50 [M] hPBMC Proliferation” value in experiment [3] stood at 5.37e-12 M. Further, in experiment [4], the EC50 is 4.37 nM.

B16: H2M2691N (antibody, mouse IgG2, V domains shown)
VH: EVQLVESGGGLVQPGRSLRLSCAASGFTFDDYTMHWVRQAPGKGLEWVSGISWNSGSIGYADSVKGRFTISRDNAKKSLYLQMNSLRAEDTALYYCAKDNSGYGHYYYGMDVWGQGTTVTVAS
VL: EIVMTQSPATLSVSPGERATLSCRASQSVSSNLAWYQQKPGQAPRLLIYGASTRATGIPARFSGSGSGTEFTLTISSLQSEDFAVYYCQHYINWPLTFGGGTKVEIK
notes: as for B4
Consider B16, for which, in experiment [5], binding was put at a Kd of 0.254 nM, the “T½” value turned out to be 19.3 h, the koff is 9.98e-06 s⁻¹ and the kon was 39400 M⁻¹ s⁻¹. For the same molecule, in experiment [3], the “EC50 [M] hPBMC Proliferation” value turned out to be 3.43e-11 M. In experiment [4], this molecule returned an EC50 of 6.77 nM.

B17: H2M2778N (antibody, mouse IgG2, V domains shown)
VH: EVQLVESGGGLVQPGRSLRLSCAASGFTFDDYSMHWVRQAPGKGLEWVSGISWNSRSIDYADSVKGRFTISRDNAKNSLYLQMNSLRAEDTALYYCVKDNSGYGRYYYYGMDVWGQGTTVSVSS
VL: KIVMTQSPATLSVSPGERATLSCRASQSVSGNLAWYQQKPGQAPRLLIYGASTRATSIPARFSGSGSGTEFTLTISSLQSEDFAVYFCQHYYNWPLTFGGGTKVEIR
notes: as for B4
With B17, in experiment [5], the Kd was determined as 0.0468 nM, the “T½” value turned out to be 29.3 h, the koff came to 6.57e-06 s⁻¹ and the kon worked out at 150000 M⁻¹ s⁻¹. In experiment [4], the response was half-maximal at 3.62 nM (EC50).

B18: H2M2885N (antibody, mouse IgG2, V domains shown)
VH: QVQLVESGGGVVQPGRSLRLSCAASGFTFRSFGMHWVRQAPGRGLEWVAMIYFDGKNKYYADSVRGRFTISRDNSKNTLYLEMSSLRAEDTAVYFCARGPGYNWLDPWGQGTLVTVSS
VL: EIVMTQSPATLSVSPGERVILSCRASQSISRNLAWYQQKPGQAPRLLIYGATTRATGVPARFSGSGSGTEFTLTISSLQSEDFAVFYCQQYNNRPLTFGGGTEVEIK
Take B18: the “U937 Cytotoxicity Human T-cells” value in experiment [1] was 3.71 pM.

B19: H2M2886N (antibody, mouse IgG2, V domains shown)
VH: QVQLVESGGGVVQPGRSLRLSCAASGFTFRSFGMHWVRQAPGRGLEWVAMIYFDGKNKYYADSVRGRFTISRDNSKNTLYLEMSSLRAEDTAVYFCARGPGYNWLDPWGQGTLVTVSS
VL: EIVMTQSPATLSVSPGERVILSCRASQSISRNLAWYQQKPGQAPRLLIYGATTRATGVPARFSGSGSGTEFTLTISSLQSEDFAVFYCQQYNNRPLTFGGGTEVEIK
For B19, the “U937 Cytotoxicity Human T-cells” value in experiment [1] came to 8.06 pM.
